The source of these data is US10087225B2, “Formulation of MK2 inhibitor peptides” (MOERAE MATRIX, INC., priority 2015, dated 2018).

Targets include EGFR(L861Q)(h) (Homo sapiens, UniProt P00533, L861Q); PASK(h) (Homo sapiens, UniProt Q96RG2); PAK2(h) (Homo sapiens, UniProt Q13177); CLK3(h) (Homo sapiens, UniProt P49761); MAPKAP-K2(h) (Homo sapiens, UniProt P49137); WNK2(h) (Homo sapiens, UniProt Q9Y3S1).
What all share (test): Kinase Profiling Assay
Holding throughout (format): biochemical
Holding throughout (conditions): for % activity: 100 μM

The target in another assay is T1, EphB4(h) (Homo sapiens, UniProt P54760).
T1 sequence (P54760 16-987): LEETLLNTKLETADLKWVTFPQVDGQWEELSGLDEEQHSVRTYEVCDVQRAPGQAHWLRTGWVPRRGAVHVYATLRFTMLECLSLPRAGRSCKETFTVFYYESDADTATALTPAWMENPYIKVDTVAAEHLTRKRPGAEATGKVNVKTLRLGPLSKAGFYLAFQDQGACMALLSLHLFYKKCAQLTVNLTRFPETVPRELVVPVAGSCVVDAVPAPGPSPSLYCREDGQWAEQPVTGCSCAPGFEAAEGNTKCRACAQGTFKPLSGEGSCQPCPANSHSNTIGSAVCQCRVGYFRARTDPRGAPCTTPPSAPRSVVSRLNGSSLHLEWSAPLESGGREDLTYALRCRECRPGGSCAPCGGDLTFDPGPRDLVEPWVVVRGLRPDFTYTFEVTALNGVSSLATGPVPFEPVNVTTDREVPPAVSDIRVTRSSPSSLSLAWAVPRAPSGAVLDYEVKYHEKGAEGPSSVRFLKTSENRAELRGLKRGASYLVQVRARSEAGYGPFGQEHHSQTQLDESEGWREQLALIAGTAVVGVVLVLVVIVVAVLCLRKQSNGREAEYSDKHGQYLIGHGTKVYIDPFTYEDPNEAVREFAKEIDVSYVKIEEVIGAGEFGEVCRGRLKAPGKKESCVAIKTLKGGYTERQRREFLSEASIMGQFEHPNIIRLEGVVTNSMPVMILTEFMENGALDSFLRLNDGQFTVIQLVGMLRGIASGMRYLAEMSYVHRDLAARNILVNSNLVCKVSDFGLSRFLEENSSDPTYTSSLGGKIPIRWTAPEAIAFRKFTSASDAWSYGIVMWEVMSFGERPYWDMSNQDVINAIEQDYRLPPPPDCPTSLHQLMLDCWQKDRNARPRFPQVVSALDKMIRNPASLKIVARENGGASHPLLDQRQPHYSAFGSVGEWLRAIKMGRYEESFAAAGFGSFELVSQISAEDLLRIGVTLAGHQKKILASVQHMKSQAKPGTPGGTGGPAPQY

A further assay concerns the target T2, ALK4(h) (Homo sapiens, UniProt P36896).
T2 sequence (P36896 24-505): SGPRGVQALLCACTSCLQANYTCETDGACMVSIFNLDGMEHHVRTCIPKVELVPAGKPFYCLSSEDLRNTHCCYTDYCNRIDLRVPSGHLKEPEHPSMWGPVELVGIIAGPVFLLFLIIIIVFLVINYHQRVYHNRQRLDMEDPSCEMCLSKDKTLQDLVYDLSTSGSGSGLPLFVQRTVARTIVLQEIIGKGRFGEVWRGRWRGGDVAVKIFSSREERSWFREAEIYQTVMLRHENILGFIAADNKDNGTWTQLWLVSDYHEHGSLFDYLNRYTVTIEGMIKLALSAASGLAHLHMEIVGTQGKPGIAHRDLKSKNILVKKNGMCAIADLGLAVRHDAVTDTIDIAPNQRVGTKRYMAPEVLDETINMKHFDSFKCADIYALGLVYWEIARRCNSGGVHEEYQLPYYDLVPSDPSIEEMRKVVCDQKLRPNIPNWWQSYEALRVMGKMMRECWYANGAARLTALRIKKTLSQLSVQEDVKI

The next assay addresses T3, PKCτ(h) (Homo sapiens, UniProt P41743).
T3 sequence (P41743 1-596): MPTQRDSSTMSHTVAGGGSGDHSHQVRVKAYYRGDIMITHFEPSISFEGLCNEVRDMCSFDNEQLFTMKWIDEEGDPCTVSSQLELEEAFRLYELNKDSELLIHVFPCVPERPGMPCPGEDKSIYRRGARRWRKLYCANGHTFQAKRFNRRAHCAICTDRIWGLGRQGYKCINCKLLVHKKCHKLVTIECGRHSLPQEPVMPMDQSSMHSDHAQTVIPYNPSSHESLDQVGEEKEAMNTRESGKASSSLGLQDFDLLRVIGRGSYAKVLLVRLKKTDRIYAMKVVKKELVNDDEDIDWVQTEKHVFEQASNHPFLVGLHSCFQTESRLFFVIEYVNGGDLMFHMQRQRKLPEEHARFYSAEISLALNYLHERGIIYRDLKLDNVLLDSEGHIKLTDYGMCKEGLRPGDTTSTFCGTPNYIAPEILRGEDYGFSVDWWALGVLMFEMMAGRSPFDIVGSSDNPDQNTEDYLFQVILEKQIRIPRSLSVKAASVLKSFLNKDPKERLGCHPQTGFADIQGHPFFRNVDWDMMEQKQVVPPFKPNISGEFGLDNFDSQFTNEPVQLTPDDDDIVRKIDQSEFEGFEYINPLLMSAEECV

The target in another assay is T4, IRAK4(h) (Homo sapiens, UniProt Q9NWZ3).
T4 sequence (Q9NWZ3 1-460): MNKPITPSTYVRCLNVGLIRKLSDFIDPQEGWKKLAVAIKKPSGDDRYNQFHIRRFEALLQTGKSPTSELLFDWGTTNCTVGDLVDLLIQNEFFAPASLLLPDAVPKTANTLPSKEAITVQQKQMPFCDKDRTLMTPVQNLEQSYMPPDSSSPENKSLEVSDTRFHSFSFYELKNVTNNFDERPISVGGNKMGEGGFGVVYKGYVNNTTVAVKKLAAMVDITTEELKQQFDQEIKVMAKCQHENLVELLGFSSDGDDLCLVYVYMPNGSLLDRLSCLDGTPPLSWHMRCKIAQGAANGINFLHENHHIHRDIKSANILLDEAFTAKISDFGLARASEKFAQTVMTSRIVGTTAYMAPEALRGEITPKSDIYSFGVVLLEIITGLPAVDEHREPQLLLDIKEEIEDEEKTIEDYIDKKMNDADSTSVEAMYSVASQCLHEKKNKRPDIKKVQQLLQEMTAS

CLK3(h), sequence (P49761 whole entry): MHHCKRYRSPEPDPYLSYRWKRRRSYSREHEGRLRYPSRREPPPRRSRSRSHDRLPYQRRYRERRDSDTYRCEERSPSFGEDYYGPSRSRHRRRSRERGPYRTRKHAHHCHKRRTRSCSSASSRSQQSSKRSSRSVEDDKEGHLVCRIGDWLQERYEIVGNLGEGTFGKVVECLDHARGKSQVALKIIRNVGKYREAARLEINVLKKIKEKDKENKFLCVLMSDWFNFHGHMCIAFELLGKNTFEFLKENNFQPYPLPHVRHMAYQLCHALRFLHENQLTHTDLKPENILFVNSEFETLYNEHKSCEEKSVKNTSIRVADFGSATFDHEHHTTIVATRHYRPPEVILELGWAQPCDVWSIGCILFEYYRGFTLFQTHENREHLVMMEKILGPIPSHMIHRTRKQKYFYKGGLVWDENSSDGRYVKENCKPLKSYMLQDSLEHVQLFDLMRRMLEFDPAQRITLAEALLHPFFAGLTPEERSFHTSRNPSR
PAK2(h), sequence (Q13177 whole entry): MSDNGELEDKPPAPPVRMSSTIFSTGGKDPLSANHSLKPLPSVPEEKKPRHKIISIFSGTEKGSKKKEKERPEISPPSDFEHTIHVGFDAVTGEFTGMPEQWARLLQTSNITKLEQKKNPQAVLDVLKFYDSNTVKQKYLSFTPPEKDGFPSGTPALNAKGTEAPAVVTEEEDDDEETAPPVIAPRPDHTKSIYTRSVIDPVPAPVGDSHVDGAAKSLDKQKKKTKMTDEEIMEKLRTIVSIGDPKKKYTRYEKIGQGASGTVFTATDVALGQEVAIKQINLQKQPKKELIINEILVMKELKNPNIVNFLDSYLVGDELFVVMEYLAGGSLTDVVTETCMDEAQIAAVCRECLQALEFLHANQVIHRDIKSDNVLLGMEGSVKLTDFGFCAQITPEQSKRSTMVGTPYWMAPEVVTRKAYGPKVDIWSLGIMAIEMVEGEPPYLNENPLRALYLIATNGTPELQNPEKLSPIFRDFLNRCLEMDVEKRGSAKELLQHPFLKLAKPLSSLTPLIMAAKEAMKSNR
WNK2(h), sequence (Q9Y3S1 whole entry): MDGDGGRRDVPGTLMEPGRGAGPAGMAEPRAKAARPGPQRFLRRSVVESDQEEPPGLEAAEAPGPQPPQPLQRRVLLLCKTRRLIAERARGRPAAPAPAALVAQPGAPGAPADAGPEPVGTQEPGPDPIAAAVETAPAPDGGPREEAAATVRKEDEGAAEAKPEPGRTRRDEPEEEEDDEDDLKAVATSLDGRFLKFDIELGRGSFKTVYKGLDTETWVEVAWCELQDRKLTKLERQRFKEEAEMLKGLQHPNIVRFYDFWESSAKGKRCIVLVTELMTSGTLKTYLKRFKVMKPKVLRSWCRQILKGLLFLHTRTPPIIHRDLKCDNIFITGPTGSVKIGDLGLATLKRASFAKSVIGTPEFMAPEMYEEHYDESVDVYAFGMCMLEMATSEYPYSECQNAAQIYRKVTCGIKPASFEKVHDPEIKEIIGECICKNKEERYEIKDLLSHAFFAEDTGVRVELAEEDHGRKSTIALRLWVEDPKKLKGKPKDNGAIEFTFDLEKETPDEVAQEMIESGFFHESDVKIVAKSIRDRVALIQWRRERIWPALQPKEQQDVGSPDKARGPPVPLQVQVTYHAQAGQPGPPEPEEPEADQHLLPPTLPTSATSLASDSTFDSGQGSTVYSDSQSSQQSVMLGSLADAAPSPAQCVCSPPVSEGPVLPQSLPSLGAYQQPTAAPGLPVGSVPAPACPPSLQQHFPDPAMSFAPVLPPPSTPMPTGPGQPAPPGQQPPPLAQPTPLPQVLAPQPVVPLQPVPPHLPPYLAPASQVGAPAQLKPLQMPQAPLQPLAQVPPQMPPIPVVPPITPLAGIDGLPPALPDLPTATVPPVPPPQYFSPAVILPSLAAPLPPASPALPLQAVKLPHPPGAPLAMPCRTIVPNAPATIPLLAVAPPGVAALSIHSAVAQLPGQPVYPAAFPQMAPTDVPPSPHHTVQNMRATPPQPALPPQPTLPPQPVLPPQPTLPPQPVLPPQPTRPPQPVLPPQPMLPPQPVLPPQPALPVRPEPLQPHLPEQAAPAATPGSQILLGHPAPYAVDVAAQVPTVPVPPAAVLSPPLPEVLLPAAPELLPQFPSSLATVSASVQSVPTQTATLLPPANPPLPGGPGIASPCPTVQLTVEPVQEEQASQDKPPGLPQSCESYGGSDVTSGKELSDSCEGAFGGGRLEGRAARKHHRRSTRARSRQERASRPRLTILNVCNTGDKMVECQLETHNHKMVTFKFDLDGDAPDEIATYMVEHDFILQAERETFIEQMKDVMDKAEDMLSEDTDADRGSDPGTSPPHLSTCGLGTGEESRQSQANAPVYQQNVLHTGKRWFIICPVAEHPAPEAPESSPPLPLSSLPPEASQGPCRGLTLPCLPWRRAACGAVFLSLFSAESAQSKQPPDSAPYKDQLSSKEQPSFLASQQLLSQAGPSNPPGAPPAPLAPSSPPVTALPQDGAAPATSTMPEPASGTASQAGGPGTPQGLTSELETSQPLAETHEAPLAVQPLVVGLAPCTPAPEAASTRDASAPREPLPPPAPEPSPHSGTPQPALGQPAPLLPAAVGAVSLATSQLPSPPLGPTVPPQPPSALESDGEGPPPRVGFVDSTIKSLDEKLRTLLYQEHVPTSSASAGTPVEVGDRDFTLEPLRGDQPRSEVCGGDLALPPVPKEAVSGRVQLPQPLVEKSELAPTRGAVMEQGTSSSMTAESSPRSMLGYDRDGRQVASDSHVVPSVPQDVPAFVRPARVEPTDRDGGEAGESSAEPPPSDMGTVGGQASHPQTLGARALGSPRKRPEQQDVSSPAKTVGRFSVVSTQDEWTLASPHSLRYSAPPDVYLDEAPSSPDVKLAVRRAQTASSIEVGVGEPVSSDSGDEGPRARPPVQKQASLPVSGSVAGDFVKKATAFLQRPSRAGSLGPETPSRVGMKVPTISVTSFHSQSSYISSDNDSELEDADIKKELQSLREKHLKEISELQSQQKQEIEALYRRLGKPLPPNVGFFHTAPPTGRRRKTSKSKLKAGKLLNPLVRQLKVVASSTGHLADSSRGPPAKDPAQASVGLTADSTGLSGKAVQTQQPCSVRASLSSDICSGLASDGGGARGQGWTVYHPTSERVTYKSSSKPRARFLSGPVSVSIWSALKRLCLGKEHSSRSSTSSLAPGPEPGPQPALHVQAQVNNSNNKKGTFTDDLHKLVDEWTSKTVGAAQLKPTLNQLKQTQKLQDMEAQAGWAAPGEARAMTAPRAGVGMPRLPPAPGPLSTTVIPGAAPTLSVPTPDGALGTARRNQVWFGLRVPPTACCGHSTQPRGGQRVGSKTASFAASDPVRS
MAPKAP-K2(h), sequence (P49137 whole entry): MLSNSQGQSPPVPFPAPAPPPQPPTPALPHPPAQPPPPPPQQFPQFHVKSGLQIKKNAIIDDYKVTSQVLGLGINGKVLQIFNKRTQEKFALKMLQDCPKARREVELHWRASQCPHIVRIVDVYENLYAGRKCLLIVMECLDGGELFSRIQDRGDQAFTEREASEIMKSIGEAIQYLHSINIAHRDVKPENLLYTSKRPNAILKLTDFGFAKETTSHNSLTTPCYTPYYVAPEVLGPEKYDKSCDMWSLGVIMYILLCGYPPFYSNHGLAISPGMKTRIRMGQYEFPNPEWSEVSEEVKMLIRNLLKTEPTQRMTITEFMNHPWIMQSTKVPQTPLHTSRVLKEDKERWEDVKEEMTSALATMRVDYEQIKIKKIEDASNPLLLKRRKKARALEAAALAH
PASK(h), sequence (Q96RG2 whole entry): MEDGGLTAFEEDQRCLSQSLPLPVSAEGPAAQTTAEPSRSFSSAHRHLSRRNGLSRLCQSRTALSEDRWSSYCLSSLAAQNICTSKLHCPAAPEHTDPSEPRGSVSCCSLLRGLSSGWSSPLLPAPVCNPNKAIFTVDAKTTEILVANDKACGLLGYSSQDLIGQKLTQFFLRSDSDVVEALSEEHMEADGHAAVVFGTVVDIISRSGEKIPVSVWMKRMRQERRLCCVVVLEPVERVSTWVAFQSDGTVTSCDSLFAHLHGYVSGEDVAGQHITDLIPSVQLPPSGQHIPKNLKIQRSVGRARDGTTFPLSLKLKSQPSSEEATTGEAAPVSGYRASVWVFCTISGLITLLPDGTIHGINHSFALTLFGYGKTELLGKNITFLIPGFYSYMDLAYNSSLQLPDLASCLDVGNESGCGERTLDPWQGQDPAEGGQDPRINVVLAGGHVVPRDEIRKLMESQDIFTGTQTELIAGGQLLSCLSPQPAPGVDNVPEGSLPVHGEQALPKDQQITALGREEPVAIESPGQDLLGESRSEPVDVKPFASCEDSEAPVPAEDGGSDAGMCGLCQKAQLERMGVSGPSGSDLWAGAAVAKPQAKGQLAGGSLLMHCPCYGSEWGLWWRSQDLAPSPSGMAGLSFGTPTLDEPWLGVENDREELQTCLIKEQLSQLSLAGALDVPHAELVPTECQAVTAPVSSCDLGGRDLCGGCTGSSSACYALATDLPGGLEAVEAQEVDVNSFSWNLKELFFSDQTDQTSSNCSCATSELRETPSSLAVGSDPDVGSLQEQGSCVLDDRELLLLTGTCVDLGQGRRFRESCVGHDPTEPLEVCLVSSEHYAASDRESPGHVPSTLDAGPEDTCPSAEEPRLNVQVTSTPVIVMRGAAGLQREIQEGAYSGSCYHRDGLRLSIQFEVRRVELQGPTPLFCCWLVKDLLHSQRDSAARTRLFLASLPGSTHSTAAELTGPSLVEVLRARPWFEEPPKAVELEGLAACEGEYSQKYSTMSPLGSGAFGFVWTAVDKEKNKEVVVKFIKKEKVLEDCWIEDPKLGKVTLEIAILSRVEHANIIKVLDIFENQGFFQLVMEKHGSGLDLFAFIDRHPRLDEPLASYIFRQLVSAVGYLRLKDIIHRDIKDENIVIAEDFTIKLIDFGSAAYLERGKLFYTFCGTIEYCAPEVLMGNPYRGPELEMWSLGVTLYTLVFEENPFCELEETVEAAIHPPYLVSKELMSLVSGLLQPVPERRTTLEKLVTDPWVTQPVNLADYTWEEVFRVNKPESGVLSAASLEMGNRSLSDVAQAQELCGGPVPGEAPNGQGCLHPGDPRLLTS

Turning to H-YARAAARQARAKALARQLGVAA-OH [MMI-0100], the activity at 100 µM amounted to 53% at EGFR(L861Q)(h); 81% on PASK(h); 62% on EphB4(h); 71% at PAK2(h); 108% on CLK3(h); 124% at ALK4(h). The activity at 100 µM on MAPKAP-K2(h) was 19%; on WNK2(h) it was 95%; at PKCτ(h), 110%; at IRAK4(h) it was 100%.

Regarding “HRRIKAWLKKIKALARQLGVAA (Mammalian) [MMI-0500]”, the “% activity” value in the assay with EGFR(L861Q)(h) came out at 15%; with PASK(h), 9%; in the assay with EphB4(h) it was 38%; with PAK2(h), 44%; with CLK3(h) it was 76%; with ALK4(h), 81%. The “% activity” value with MAPKAP-K2(h) is 9%; with WNK2(h), 8%; with PKCτ(h), 7%; with IRAK4(h) it was 3%.

Take “YARAAARQARAKALNRQLGVA (Mammalian) [MMI-0200]”: the “% activity” value with EGFR(L861Q)(h) was 74%; in the assay with PASK(h), 60%; with EphB4(h) it was 131%; in the assay with PAK2(h) it was 69%; in the assay with CLK3(h), 76%; in the assay with ALK4(h), 152%. Further, the “% activity” value with MAPKAP-K2(h) amounted to 35%; with WNK2(h), 94%; with PKCτ(h), 97%; with IRAK4(h) it was 110%.
